# Test: Example 5A gas chromatography assay of HHDH activity (conversion of ECHB to ethyl (R)-4-cyano-3-hydroxybutyrate)
# Format: biochemical
# Details: for HHDH activity greater than the HHDH activity of Agrobacterium sp. (wild-type) HHDH (SEQ ID NO: 2): assay described in Example 5A; for Fold Improvement in HHDH Activity over Aerobacterium sp. HHDH (SEQ ID NO: 2): ECHB substrate, Activity of Improved HHDH Enzyme/Activity of Agrobacterium sp. HHDH (SEQ ID NO: 2)
# Procedure: To a solution of ethyl (S)-4-chloro-3-hydroxybutyrate (10 mM-100 mM) in 500 mM HCN (500 mM NaCN adjusted to pH 7.0 with phosphoric acid) was added the halohydrin dehalogenase enzyme as a predissolved solution in the same buffer. Over time, aliquots of the mixture were withdrawn and extracted with three volumes of ethyl acetate. The organic layer was then analysed for ethyl (R)-4-cyano-3-hydroxybutyrate by gas chromatography (GC), as described hereinbelow in Example 6. Samples were taken at various time points, and the peak area of the product cyanohydrin, ethyl (R)-4-cyano-3-hydroxybutyrate, was plotted as a function of time. Time points are selected at low conversion, for example, less than 5% conversion, to avoid the effect of product inhibition (e.g., 0.5%, 1.0%, 1.5%, 2.0%, 2.5%, 3.0%, etc.). The peak areas were converted to concentration units using a standard curve that was prepared for the ethyl (R)-4-cyano-3-hydroxybutyrate. Activity of the halohydrin dehalogenase was determined in units of μmol (cyanohydrin produced)/min/mg (total halohydrin dehalogenase catalyst). Relative activities of some of the clones are shown in Table 2, computed as Activity of Improved HHDH Enzyme/Activity of Agrobacterium sp. HHDH (SEQ ID NO: 2).
# The ethyl (R)-4-cyano-3-hydroxybutyrate produced in Example 5A was analyzed using gas chromatography with flame ionization (FID) detection using an Agilent® HP-5™ column, 30 m long, 0.32 mm inner diameter, film 0.25 μm, using the following program: 1 minute at 100° C., 5° C./minute for 10 minutes; 25° C./minute for 2 minutes; then 2 minutes at 200° C. Inlet and outlet temperatures were both 300° C., and the flow rate was 2 ml/minute. Under these conditions, ethyl (R)-4-cyano-3-hydroxybutyrate elutes at 6.25 minutes and ethyl (S)-4-chloro-3-hydroxybutyrate elutes at 4.5 minutes. Chemical purity of the species was measured using the integrated peak areas from the gas chromatography results.
Molecule,HHDH activity greater than the HHDH activity of Agrobacterium sp. (wild-type) HHDH (SEQ ID NO: 2),Fold Improvement in HHDH Activity over Aerobacterium sp. HHDH (SEQ ID NO: 2)
W139R/N176E: intermediate active HHDH variant with W139 and N176 mutated into an apparent salt bridge (with reference to SEQ ID NO: 2) (protein) MSTAIVTNVKHFGGMGSALRLSEAGHTVACHDESFKQKDELEAFAETYPQLKPMSEQEPAELIEAVTSAYGQVDVLVSNDIFAPEFQPIDKYAVEDYRGAVEALQIRPFALVNAVASQMKKRKSGHIIFITSATPFGPRKELSTYTSARAGACTLANALSKELGEYNIPVFAIGPEYLHSEDSPYFYPTEPWKTNPEHVAHVKKVTALQRLGTQKELGELVAFLASGSCDYLTGQVFWLAGGFPMIERWPGMPE,greater HHDH activity relative to wildtype HHDH,–
W139D/N176R: intermediate active HHDH variant with W139 and N176 mutated into an apparent salt bridge (with reference to SEQ ID NO: 2) (protein) MSTAIVTNVKHFGGMGSALRLSEAGHTVACHDESFKQKDELEAFAETYPQLKPMSEQEPAELIEAVTSAYGQVDVLVSNDIFAPEFQPIDKYAVEDYRGAVEALQIRPFALVNAVASQMKKRKSGHIIFITSATPFGPDKELSTYTSARAGACTLANALSKELGEYNIPVFAIGPRYLHSEDSPYFYPTEPWKTNPEHVAHVKKVTALQRLGTQKELGELVAFLASGSCDYLTGQVFWLAGGFPMIERWPGMPE,greater HHDH activity relative to wildtype HHDH,–
SEQ ID NO: 12: improved HHDH (halohydrin dehalogenase) polypeptide of the Sequence Listing (protein) MSPAIVTNIKHFSGMCRALRLSEAGHTVACHDESFKQKDELEAFAETYPQLKPMSEQEPAELIEAVTSAYGQVDVLVSNDIFAPEFQPIDKYAVEDYRGAVEALQIRPFALVNAVASQMKKRKSGHIIFITSATPFGPWKELSTYTSARAGACTLANALSKELGEYNIPVFAIGPNYLHSEDSPYFYPTEPWKTNPEHVAHVKKVTALQRLGTQKELGELVAFLASGSCDYLTGQVFWLAGGFPMIERWPGMPE,–,2.5 Fold
SEQ ID NO: 20: improved HHDH (halohydrin dehalogenase) polypeptide of the Sequence Listing (protein) MSPAIVTNVKHFGGMGSALRLSEAGHTVACHDESFKQKDELEAFAETYPQLKPMSEQEPAELIEAVTSAYGQVDVLVSNDIFAPEFQPIDKYAVEDYRGAVEALQIRPFALVNAVASQMKKRKSGHIIFITSATPFGPWKELSTYTSARAGACTLANALSKELGEYNIPVFAIGPNYLHSEDSPYFYPTEPWKTNPEHVAHVKKVTALQRLGTQKELGELVAFLASGSCDYLTGQVFWLAGGFPMIERWPGMPE,–,3.8 Fold
SEQ ID NO: 10: improved HHDH (halohydrin dehalogenase) polypeptide of the Sequence Listing (protein) MTAAIVTNVKHFGGMGSALRLSEAGHTVTCHDERLKQKDELEAFAETYPQLNPMSEQEPAELIEAVTSAYGQVDVLVSNDIFAPEFQPIDKYAVEDYRGAVEALQIRPFALVNAVASQMKKRKSGHIIFITSATPFGPWKELSTYTSARAGACTLANALSKELGEYNIPVFAIGPNYLHSEDSPYFYPTEPWKTNPEHVAHVKKVTALQRLGTQKELGELVAFLASGSCDYLTGQVFWLAGGFPMIERWPGMPE,–,1.7 Fold
SEQ ID NO: 24: improved HHDH (halohydrin dehalogenase) polypeptide of the Sequence Listing (protein) MSTAIVTNVKHFGGMGSALRLSEAGHTVACHDESFKQKDELEAFAETYPQLKPMSEQEPAELIEAVTSAYGQVDVLVSNDIFAPEFQPIDKYAVEDYRGAVEALQIRPFALVNAVASQMKKRKSGHIIFITSATPFGPWKELSTYTSARAGACTLANALSKELGEYNIPVFAIGPNYLHSEDSPYFYPTEPWKTNPEHMAHVKKVTALQRLGTQKELGELVAFLASGSCDYLTGQVFWLAGGFPMIERWPGMPE,–,3.2 Fold
SEQ ID NO: 16: improved HHDH (halohydrin dehalogenase) polypeptide of the Sequence Listing (protein) MSTAIVTNVKHFGGMGSALRLSEAGHTVACHDESFKQKDELEAFAETYPQLKPMSEQEPAELIEAVTSAYGQVDVLVSNDIFAPEFQPIDKYAVEDYRGAVEALQIRPFALVNAVASQMKKRKSGHIIFITSATPLGPWKELSTYTSARAGACTLANALSKELGEYNIPVFAIGPNYLHSEDSPYFYPTEPWKTNPEHVAHVKKVTALQRLGTQKELGELVAFLASGSCDYLTGQVFWLAGGFPMIERWPGMPE,–,2.0 Fold
SEQ ID NO: 22: improved HHDH (halohydrin dehalogenase) polypeptide of the Sequence Listing (protein) MSTAIVTNVKHFGGMGSALRLSEAGHTVACHDESFNQKDELEAFAETYPQLKPMSEQEPAELIEAVTSAYGQVDVLVSNDIFAPEFQPIDKYAVEDYRGAVEALQIRPFALVNAVASQMKKRKSGHIIFITSATPFGPWKELSTYTSARAGACTLANALSKELGEYNIPVFAIGPNYLHSEDSPYFYPTEPWKTNPEHVAHVKKVTALQRLGTQKELGELVAFLASGSCDYLTGQVFWLAGGFPMIERWPGVPE,–,2.5 Fold
SEQ ID NO: 26: improved HHDH (halohydrin dehalogenase) polypeptide of the Sequence Listing (protein) MSTAIVTNVKHFGGMGSALRLSEAGHTVACHDESFKQKDELEAFAETYPQLKPMSEQEPAELIEAVTSAYGQVDVLVSNDIFAPEFQPIDKYAVEDYRGAVEALQIRPFALVNAVASQMKKRKSGHIIFITSATPLGPWKELSTYTSARAGACTLANALSKELGEYNIPVFAIGPNYLHSEDSPYFYPTEPWKTNPEHVAHVKKVTALQRLGTQKELGELVAFLASGSCDYLTGQVFWLAGGFPMIERWPGMPE,–,1.7 Fold
SEQ ID NO: 14: improved HHDH (halohydrin dehalogenase) polypeptide of the Sequence Listing (protein) MSTAIDTNVKHFGSKGTALRLSEAGHTVACHDESFKQKDDLEAFAETYPQLKPMSEQEPAELIEAVTSAYGQVDVLVSNDIFAPEFQPIDKYAVEDYRGAVEALQIRPFALVNAVASQMKKRKSGHIIFITSSTPFGPWKELSTYTSARAGACTLANALSKELGEYNIPVFAIGPNYLHSEDSPYFYPTEPWKTNPEHVAHVKKVTALQRLGTQKELGELVAFLASGSCDYLTGQVFWLAGGFPMIERWPGMPE,–,1.4 Fold
SEQ ID NO: 34: improved HHDH (halohydrin dehalogenase) polypeptide of the Sequence Listing (protein) MSPAIVTNVKHFGGMGTALRLSEAGQTVACHDESFKQKDELEAFAETYPQLKPMSEQEPAELIEAVTSAYGQVDVLVSNDIFAPEFQPIDKYAVEDYRGAVEALQIRPFALVNAVASQMKKRKSGHIIFITSATPFGPWKELSTYTSARAGACTLANALSKELGEYNIPVFAIGPNYLHSEDSPYFYPTEPWKTNPEHVAHVKKVTALQRLGTQKELGELVAFLASGSCDYLTGQVFWLAGGFPMIERWPGMPE,–,2.4 Fold
SEQ ID NO: 18: improved HHDH (halohydrin dehalogenase) polypeptide of the Sequence Listing (protein) MSTAIVTNVKHFGGMGSALRLSEAGHTVACHDESFKQKDELEAFAETYPQLKPMSEQEPAELIEAVTSAYGQVDVLVSNDIFAPEFQPIDKYAVEDYRGAVEALQIRPFALVNAVASQMKKRKSGHIIFITSATPFGPWKELSTYTSARAGACTLANALSKELGEYNIPVFAIGPNYLHSEDSPYFYPTEPWKTNPEHVAHVKKVTALQRLGTQKELGELVAFLASGSCDYLTGQGFFLAGGFPMIERWPGM,–,2.7 Fold
SEQ ID NO: 28: improved HHDH (halohydrin dehalogenase) polypeptide of the Sequence Listing (protein) MSPAIVTNVKHFGGMGSALRLSEAGHTVACHDESFKQKDELEAFAETYPQLKPMSEQEPAELIEAVTSAYGQVDVLVSNDIFAPEFQPIDKYAVEDYRGAVEALQIRPFALVNAVASQMKKRKSGHIIFITSATPFGPWKELSTYTSARAGACTLANALSKELGEYNIPVFAIGPNYLHSEDSPYFYPTEPWKTNPEHVAHVKKVTALQRLGTQKELGELVAFLASGSCDYLTGQVFWLAGGFPMIERWPGM,–,2.2 Fold
